Test results as given in the supplement of paper PMC9112550, “Optimization of the antimicrobial peptide Bac7 by deep mutational scanning” (BMC Biology, 2022).

system: Escherichia coli TOP10; assay: shrunken log2 fold change of peptide-encoding DNA abundance (4.5 h post-induction vs induction); higher = less antimicrobial activity (less host growth inhibition); conditions: time post-induction: 4.5 h; library: site-saturation at positions 5, 18, 19, 20
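Also: peptides expressed intracellularly from a pBAD plasmid library in pooled LB shake-flask culture, induced with 0.3% L-arabinose, DNA abundance read by NGS, three biological replicates, DESeq2 with apeglm shrinkage.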

First: RRIRNRPPRLPRPRPRPGAQPRP
Second: RRIRTRPPRLPRPRPRPLDKPRP
The “shrunken log2 fold change” value of the first is higher: 0.0369 for the first, -0.18 for the second.

RRIRKRPPRLPRPRPRPMFSPRP and RRIRCRPPRLPRPRPRPQETPRP are within 0.2 log units of each other in “shrunken log2 fold change” value: -0.0859 for the first, 0.00739 for the second.

Going from RRIRVRPPRLPRPRPRPGCFPRP to RRIRKRPPRLPRPRPRPRGQPRP, the “shrunken log2 fold change” value rises from 0.15 to 0.648.

RRIRRRPPRLPRPRPRPDTGPRP and RRIRTRPPRLPRPRPRPHWFPRP are within 0.2 log units of each other in “shrunken log2 fold change” value: 0.0107 for the first, -0.132 for the second.

First: RRIRGRPPRLPRPRPRPSGEPRP
Second: RRIRNRPPRLPRPRPRPHVRPRP
The “shrunken log2 fold change” value of the first is higher: 0.598 for the first, -0.12 for the second.

RRIRVRPPRLPRPRPRPYMMPRP and RRIRFRPPRLPRPRPRPHDRPRP are within 0.2 log units of each other in “shrunken log2 fold change” value: -0.00989 for the first, 0.0063 for the second.

First: RRIRNRPPRLPRPRPRPEMQPRP
Second: RRIRGRPPRLPRPRPRPGGWPRP
The “shrunken log2 fold change” value of the first is lower: -0.00804 for the first, 1.58 for the second.

First: RRIRCRPPRLPRPRPRPLVPPRP
Second: RRIRGRPPRLPRPRPRPVAMPRP
The “shrunken log2 fold change” value of the first is lower: -0.202 for the first, 1.02 for the second.

Going from RRIRCRPPRLPRPRPRPLVSPRP to RRIRARPPRLPRPRPRPQAYPRP, the “shrunken log2 fold change” value rises from -0.245 to -0.0327.

First: RRIRERPPRLPRPRPRPGIRPRP
Second: RRIRSRPPRLPRPRPRPANIPRP
The “shrunken log2 fold change” value of the first is higher: -0.0819 for the first, -0.484 for the second.

RRIRLRPPRLPRPRPRPYNDPRP and RRIRPRPPRLPRPRPRPQQQPRP are within 0.2 log units of each other in “shrunken log2 fold change” value: -0.0858 for the first, -0.17 for the second.

RRIRFRPPRLPRPRPRPHKCPRP and RRIRPRPPRLPRPRPRPFPVPRP are within 0.2 log units of each other in “shrunken log2 fold change” value: -0.106 for the first, 0.00381 for the second.

RRIRCRPPRLPRPRPRPMGEPRP and RRIRVRPPRLPRPRPRPTCQPRP are within 0.2 log units of each other in “shrunken log2 fold change” value: 0.0249 for the first, -0.035 for the second.

First: RRIRMRPPRLPRPRPRPSPPPRP
Second: RRIRERPPRLPRPRPRPACDPRP
The “shrunken log2 fold change” value of the first is higher: 0.74 for the first, 0.0619 for the second.

Going from RRIRTRPPRLPRPRPRPVMMPRP to RRIRRRPPRLPRPRPRPDCIPRP, the “shrunken log2 fold change” value rises from -0.199 to 0.0761.

Compared with RRIRMRPPRLPRPRPRPDECPRP, RRIRKRPPRLPRPRPRPMFCPRP is lower in “shrunken log2 fold change” value: 2.8 for the first, 0.0792 for the second.

First: RRIRHRPPRLPRPRPRPQMHPRP
Second: RRIRIRPPRLPRPRPRPPGLPRP
The “shrunken log2 fold change” value of the first is lower: -0.00258 for the first, 0.204 for the second.

RRIRMRPPRLPRPRPRPHSLPRP and RRIRPRPPRLPRPRPRPVCHPRP are within 0.2 log units of each other in “shrunken log2 fold change” value: -0.0589 for the first, -0.0724 for the second.

Compared with RRIRARPPRLPRPRPRPGEKPRP, RRIRHRPPRLPRPRPRPCTIPRP is lower in “shrunken log2 fold change” value: 0.333 for the first, -0.0935 for the second.

RRIRHRPPRLPRPRPRPIGDPRP and RRIRTRPPRLPRPRPRPEGMPRP are within 0.2 log units of each other in “shrunken log2 fold change” value: -0.00136 for the first, 0.18 for the second.

Compared with RRIRGRPPRLPRPRPRPDPPPRP, RRIRQRPPRLPRPRPRPYRAPRP is lower in “shrunken log2 fold change” value: 1.14 for the first, -0.0946 for the second.

RRIRTRPPRLPRPRPRPLDTPRP and RRIRLRPPRLPRPRPRPMNNPRP are within 0.2 log units of each other in “shrunken log2 fold change” value: -0.566 for the first, -0.604 for the second.

Going from RRIRPRPPRLPRPRPRPGKFPRP to RRIRTRPPRLPRPRPRPEPPPRP, the “shrunken log2 fold change” value rises from -0.385 to 0.395.

Compared with RRIRYRPPRLPRPRPRPYDLPRP, RRIRTRPPRLPRPRPRPIFDPRP is lower in “shrunken log2 fold change” value: -0.0181 for the first, -0.337 for the second.

Going from RRIRVRPPRLPRPRPRPWNEPRP to RRIRARPPRLPRPRPRPCWLPRP, the “shrunken log2 fold change” value rises from -0.0886 to 0.294.

RRIRKRPPRLPRPRPRPIYQPRP and RRIRLRPPRLPRPRPRPWKYPRP are within 0.2 log units of each other in “shrunken log2 fold change” value: -0.0246 for the first, -0.0875 for the second.

Compared with RRIRLRPPRLPRPRPRPNRMPRP, RRIRQRPPRLPRPRPRPWALPRP is lower in “shrunken log2 fold change” value: 1.82 for the first, -0.0992 for the second.

First: RRIRKRPPRLPRPRPRPELMPRP
Second: RRIRVRPPRLPRPRPRPIRNPRP
The “shrunken log2 fold change” value of the first is higher: 1.24 for the first, -0.0718 for the second.

RRIRQRPPRLPRPRPRPSGQPRP and RRIRHRPPRLPRPRPRPWPTPRP are within 0.2 log units of each other in “shrunken log2 fold change” value: -0.0485 for the first, 0.103 for the second.

Going from RRIRSRPPRLPRPRPRPPDTPRP to RRIRNRPPRLPRPRPRPQYEPRP, the “shrunken log2 fold change” value falls from 0.237 to -0.117.

First: RRIRFRPPRLPRPRPRPGEAPRP
Second: RRIRHRPPRLPRPRPRPWTRPRP
The “shrunken log2 fold change” value of the first is higher: 0.416 for the first, -0.0761 for the second.

RRIRWRPPRLPRPRPRPKLPPRP and RRIRRRPPRLPRPRPRPLSWPRP are within 0.2 log units of each other in “shrunken log2 fold change” value: 0.247 for the first, 0.361 for the second.

Going from RRIRPRPPRLPRPRPRPNIRPRP to RRIRRRPPRLPRPRPRPAHNPRP, the “shrunken log2 fold change” value rises from -0.743 to 0.344.

Compared with RRIRPRPPRLPRPRPRPWCMPRP, RRIRARPPRLPRPRPRPVSLPRP is higher in “shrunken log2 fold change” value: -0.355 for the first, -0.0174 for the second.

Compared with RRIRGRPPRLPRPRPRPRTAPRP, RRIRTRPPRLPRPRPRPGKDPRP is lower in “shrunken log2 fold change” value: 1.12 for the first, 0.0234 for the second.

Compared with RRIRERPPRLPRPRPRPYKSPRP, RRIRYRPPRLPRPRPRPDCIPRP is lower in “shrunken log2 fold change” value: -0.0824 for the first, -0.501 for the second.

First: RRIRWRPPRLPRPRPRPRTWPRP
Second: RRIRTRPPRLPRPRPRPKSGPRP
The “shrunken log2 fold change” value of the first is higher: 0.292 for the first, 0.0903 for the second.

Compared with RRIRRRPPRLPRPRPRPIFKPRP, RRIRFRPPRLPRPRPRPHGTPRP is lower in “shrunken log2 fold change” value: 0.196 for the first, -0.134 for the second.

RRIRTRPPRLPRPRPRPHDFPRP and RRIRQRPPRLPRPRPRPDSFPRP are within 0.2 log units of each other in “shrunken log2 fold change” value: 0.0369 for the first, 0.0109 for the second.

RRIRRRPPRLPRPRPRPANGPRP and RRIRNRPPRLPRPRPRPQKFPRP are within 0.2 log units of each other in “shrunken log2 fold change” value: -0.164 for the first, -0.0476 for the second.

Going from RRIRIRPPRLPRPRPRPVWNPRP to RRIRMRPPRLPRPRPRPWDTPRP, the “shrunken log2 fold change” value rises from -0.576 to -0.0606.

RRIRLRPPRLPRPRPRPGPTPRP and RRIRERPPRLPRPRPRPHDEPRP are within 0.2 log units of each other in “shrunken log2 fold change” value: 0.109 for the first, 0.00178 for the second.

First: RRIRGRPPRLPRPRPRPLRGPRP
Second: RRIRERPPRLPRPRPRPAIMPRP
The “shrunken log2 fold change” value of the first is higher: 1.29 for the first, -0.299 for the second.

Going from RRIRTRPPRLPRPRPRPLSAPRP to RRIRKRPPRLPRPRPRPSEFPRP, the “shrunken log2 fold change” value falls from 0.369 to 0.154.

Compared with RRIRLRPPRLPRPRPRPHHIPRP, RRIRERPPRLPRPRPRPEPYPRP is higher in “shrunken log2 fold change” value: -0.343 for the first, -0.0697 for the second.

RRIRIRPPRLPRPRPRPMSIPRP and RRIRGRPPRLPRPRPRPQNHPRP are within 0.2 log units of each other in “shrunken log2 fold change” value: -0.0563 for the first, -0.18 for the second.

Going from RRIRCRPPRLPRPRPRPKQCPRP to RRIRNRPPRLPRPRPRPRNMPRP, the “shrunken log2 fold change” value falls from 0.269 to -0.171.

Compared with RRIRERPPRLPRPRPRPERQPRP, RRIRDRPPRLPRPRPRPSAKPRP is higher in “shrunken log2 fold change” value: -0.0184 for the first, 0.23 for the second.

Going from RRIRHRPPRLPRPRPRPMYSPRP to RRIRRRPPRLPRPRPRPKSTPRP, the “shrunken log2 fold change” value rises from -0.263 to 0.18.

RRIRWRPPRLPRPRPRPHPGPRP and RRIRRRPPRLPRPRPRPFVLPRP are within 0.2 log units of each other in “shrunken log2 fold change” value: -0.0288 for the first, -0.0834 for the second.

First: RRIRWRPPRLPRPRPRPHMWPRP
Second: RRIRNRPPRLPRPRPRPFLHPRP
The “shrunken log2 fold change” value of the first is higher: -0.138 for the first, -0.351 for the second.

RRIRMRPPRLPRPRPRPWIKPRP and RRIRKRPPRLPRPRPRPFMSPRP are within 0.2 log units of each other in “shrunken log2 fold change” value: 0.101 for the first, 0.0192 for the second.

RRIRHRPPRLPRPRPRPGQHPRP and RRIRPRPPRLPRPRPRPLMSPRP are within 0.2 log units of each other in “shrunken log2 fold change” value: -0.372 for the first, -0.443 for the second.

Compared with RRIRKRPPRLPRPRPRPLALPRP, RRIRIRPPRLPRPRPRPQGFPRP is lower in “shrunken log2 fold change” value: 0.536 for the first, -0.129 for the second.

For RRIRERPPRLPRPRPRPRQKPRP, the “shrunken log2 fold change” value was 0.0386.
